From US20230364193A1, “COMBINED DRUG FOR TREATING CORONARIVUS DISEASE 2019” (SICHUAN UNIVERSITY WEST CHINA HOSPITAL, priority 2020, published 2023)
Read-outs that look alike come from different tables or passages of the source.

Experiments:
SARS-CoV-2 virus [1] = test: microbe, parasite or virus in culture; conditions: Vero-E6
[2] = system: patients with moderate or severe COVID-19; conditions: for clinical improvement rate day 28, (%): called clinical remission rate in b66; for Time for clinical improvement (days), median: called clinical remission; for Time for radiographic improvement (days), median: chest CT, absorption of inflammation; for Time for Viral nucleic acid to turn negative (days), median: real-time fluorescence quantitative PCR; for serious adverse reaction (cases): safety analysis set, the IFN-α case was respiratory failure
SARS-CoV-2 virus [3] = conditions: for EC50 Experiment 1 / EC50 Experiment 2 / EC50 Experiment 3 / EC50 means: Vero-E6; for EC50 means: mean of 3 experiments
Vero-E6 cells = test: Cytotoxicity assay on Vero-E6 cells (CCK-8, 48 hours)
Experimental: • 1) Vero-E6 cells were inoculated in a 96-well plate at 1×10^4 cells per well the day before; • 2) The cell state was observed until the confluence reached about 50%. The rSIFN-co was diluted by 2.17-fold with 2×DMEM medium containing 4% […], as the highest concentration, namely 6×10^8 pg/ml.
The plates were cultured in an incubator at 37° C. and 5% CO2; • 4) 48 hours after adding the drug, 1/10 volume of Cell Counting […] (CCK-8) was directly added to the cell culture medium, mixed well, and air bubbles should be avoided. Cells were incubated in an incubator at 37° C. for 1 hour until the color turned into orange. The blank group was set as zero, and the absorbance at 450 nm was measured with a multifunctional microplate reader, and the survival rate was calculated as follows: survival rate (%)=OD450 of the test group/OD450 of the control group×100%.

[4] = day 7, percent of group, added to baseline treatment
[5] = day 14, percent of group, added to baseline treatment
[6] = day 28, percent of group, added to baseline treatment

CCN(CC)CCCC(C)Nc1ccnc2cc(Cl)ccc12 (stereo not shown) [Chloroquine]
EC50 (SARS-CoV-2 virus [1]; Severe acute respiratory syndrome coronavirus 2, Vero C1008, read-out: EC50 Experiment 1, MOI: 0.005 (50 PFU)): 1.7 µM
EC50 (SARS-CoV-2 virus [1]; Severe acute respiratory syndrome coronavirus 2, Vero C1008, read-out: EC50 Experiment 1, MOI: 0.05 (500 PFU)): 3.65 µM
EC50 (SARS-CoV-2 virus [1]; Severe acute respiratory syndrome coronavirus 2, Vero C1008, read-out: EC50 Experiment 1, MOI: 0.5 (5000 PFU)): 5.25 µM
EC50 (SARS-CoV-2 virus [1]; Severe acute respiratory syndrome coronavirus 2, Vero C1008, read-out: EC50 Experiment 2, MOI: 0.005 (50 PFU)): 1.77 µM
EC50 (SARS-CoV-2 virus [1]; Severe acute respiratory syndrome coronavirus 2, Vero C1008, read-out: EC50 Experiment 2, MOI: 0.05 (500 PFU)): 4.23 µM
EC50 (SARS-CoV-2 virus [1]; Severe acute respiratory syndrome coronavirus 2, Vero C1008, read-out: EC50 Experiment 2, MOI: 0.5 (5000 PFU)): 5.72 µM
EC50 (SARS-CoV-2 virus [1]; Severe acute respiratory syndrome coronavirus 2, Vero C1008, read-out: EC50 Experiment 3, MOI: 0.005 (50 PFU)): 2.34 µM
EC50 (SARS-CoV-2 virus [1]; Severe acute respiratory syndrome coronavirus 2, Vero C1008, read-out: EC50 Experiment 3, MOI: 0.05 (500 PFU)): 2.34 µM
EC50 (SARS-CoV-2 virus [1]; Severe acute respiratory syndrome coronavirus 2, Vero C1008, read-out: EC50 Experiment 3, MOI: 0.5 (5000 PFU)): 5.04 µM
EC50 (SARS-CoV-2 virus [1]; Severe acute respiratory syndrome coronavirus 2, Vero C1008, read-out: EC50 means, MOI: 0.005 (50 PFU), mean of 3 experiments): 1.94 µM
EC50 (SARS-CoV-2 virus [1]; Severe acute respiratory syndrome coronavirus 2, Vero C1008, read-out: EC50 means, MOI: 0.05 (500 PFU), mean of 3 experiments): 3.41 µM
EC50 (SARS-CoV-2 virus [1]; Severe acute respiratory syndrome coronavirus 2, Vero C1008, read-out: EC50 means, MOI: 0.5 (5000 PFU), mean of 3 experiments): 5.34 µM

IFN-α
Radiographic Improvement Rate Day 7, (%) ([2]; Day 7): (25.0) %
Rate for Viral nucleic acid to turn negative Day 7, (%) ([2]; Day 7): (31.3) %
Radiographic Improvement Rate Day 14, (%) ([2]; Day 14): (66.7) %
Rate for Viral nucleic acid to turn negative Day 14, (%) ([2]; Day 14): (64.6) %
Radiographic Improvement Rate Day 28, (%) ([2]; Day 28): (79.2) %
Rate for Viral nucleic acid to turn negative Day 28, (%) ([2]; Day 28): (85.4) %
clinical improvement rate day 7, (%) ([2]; day 7): (6.3) %
7-level scale on day 7, 2: Not hospitalized, but unable to return to normal activities, (%) [2, 4]: (12.5) %
7-level scale on day 7, 3: Hospitalized, no need for supplemental oxygen, (%) [2, 4]: (25.0) %
7-level scale on day 7, 4: Hospitalized, requiring supplemental oxygen, (%) [2, 4]: (43.8) %
7-level scale on day 7, 5: Hospitalized, requiring nasal high-flow oxygen therapy or non-invasive mechanical ventilation, (%) [2, 4]: (16.7) %
7-level scale on day 7, 6: Hospitalized, requiring extracorporeal membrane oxygenation, invasive mechanical ventilation, or both, (%) [2, 4]: (2.0) %
clinical improvement rate day 14, (%) ([2]; day 14): (39.6) %
7-level scale on day 14, 2: Not hospitalized, but unable to return to normal activities, (%) [2, 5]: (43.8) %
7-level scale on day 14, 3: Hospitalized, no need for supplemental oxygen, (%) [2, 5]: (31.2) %
7-level scale on day 14, 4: Hospitalized, requiring supplemental oxygen, (%) [2, 5]: (16.7) %
7-level scale on day 14, 5: Hospitalized, requiring nasal high-flow oxygen therapy or non-invasive mechanical ventilation, (%) [2, 5]: (6.3) %
7-level scale on day 14, 6: Hospitalized, requiring extracorporeal membrane oxygenation, invasive mechanical ventilation, or both, (%) [2, 5]: (2.0) %
clinical improvement rate day 28, (%) ([2]; day 28): 77.1%
clinical improvement rate day 28, (%) ([2]; day 28, listed as IFN- α): (77.1) %
7-level scale on day 28, 2: Not hospitalized, but unable to return to normal activities, (%) [2, 6]: (91.6) %
7-level scale on day 28, 3: Hospitalized, no need for supplemental oxygen, (%) [2, 6]: (2.1) %
7-level scale on day 28, 4: Hospitalized, requiring supplemental oxygen, (%) [2, 6]: (4.2) %
7-level scale on day 28, 6: Hospitalized, requiring extracorporeal membrane oxygenation, invasive mechanical ventilation, or both, (%) [2, 6]: (2.1) %
Deterioration rate, (%) ([2]; human, in vivo): (2.1) %
Time for clinical improvement (days), median ([2]; added to baseline treatment): 14.0 days
Time for radiographic improvement (days), median [2]: 10.0 days
Time for Viral nucleic acid to turn negative (days), median [2]: 10.0 days
serious adverse reaction (cases) [2]: 1

B1: rSIFN-co: new type of genetically engineered interferon produced by changing 65 bases of the genetic code of IFN-α; amino acid sequence SEQ ID NO.2 (protein)
chain: MCDLPQTHSLGNRRALILLAQMRRISPFSCLKDRHDFGFPQEEFDGNQFQKAQAISVLEMIQQTFNLFSTKDSSAAWDESLLEKFYTELYQQLNDLEACVIQEVGVEETPLMNVDSILAVKKYFQRITLYLTEKKYSPCAWEVVRAEIMRSFSLSTNLQERLRRKE
modifications: rSIFN-co Synthetic amino acid sequence
Radiographic Improvement Rate Day 7, (%) ([2]; Day 7): (43.5) %
Rate for Viral nucleic acid to turn negative Day 7, (%) ([2]; Day 7): (50.0) %
Radiographic Improvement Rate Day 7, differences (rate difference) ([2]; Day 7, rSIFN-co vs IFN-α): 18.5
Rate for Viral nucleic acid to turn negative Day 7, differences (rate difference) ([2]; Day 7, rSIFN-co vs IFN-α): 18.7
Radiographic Improvement Rate Day 14, (%) ([2]; Day 14): (84.8) %
Rate for Viral nucleic acid to turn negative Day 14, (%) ([2]; Day 14): (76.1) %
Radiographic Improvement Rate Day 14, differences (rate difference) ([2]; Day 14, rSIFN-co vs IFN-α): 18.1
Rate for Viral nucleic acid to turn negative Day 14, differences (rate difference) ([2]; Day 14, rSIFN-co vs IFN-α): 11.5
Radiographic Improvement Rate Day 28, (%) ([2]; Day 28): (91.3) %
Rate for Viral nucleic acid to turn negative Day 28, (%) ([2]; Day 28): (97.8) %
Radiographic Improvement Rate Day 28, differences (rate difference) ([2]; Day 28, rSIFN-co vs IFN-α): 12.1
Rate for Viral nucleic acid to turn negative Day 28, differences (rate difference) ([2]; Day 28, rSIFN-co vs IFN-α): 12.4
clinical improvement rate day 7, (%) ([2]; day 7): (10.9) %
7-level scale on day 7, 2: Not hospitalized, but unable to return to normal activities, (%) [2, 4]: (13.0) %
7-level scale on day 7, 3: Hospitalized, no need for supplemental oxygen, (%) [2, 4]: (19.6) %
7-level scale on day 7, 4: Hospitalized, requiring supplemental oxygen, (%) [2, 4]: (50.0) %
7-level scale on day 7, 5: Hospitalized, requiring nasal high-flow oxygen therapy or non-invasive mechanical ventilation, (%) [2, 4]: (17.4) %
clinical improvement rate day 7, differences (rate difference) ([2]; day 7, rSIFN-co vs IFN-α): 4.6
clinical improvement rate day 14, (%) ([2]; day 14): (65.2) %
7-level scale on day 14, 2: Not hospitalized, but unable to return to normal activities, (%) [2, 5]: (58.7) %
7-level scale on day 14, 3: Hospitalized, no need for supplemental oxygen, (%) [2, 5]: (21.7) %
7-level scale on day 14, 4: Hospitalized, requiring supplemental oxygen, (%) [2, 5]: (17.4) %
7-level scale on day 14, 5: Hospitalized, requiring nasal high-flow oxygen therapy or non-invasive mechanical ventilation, (%) [2, 5]: (2.2) %
clinical improvement rate day 14, differences (rate difference) ([2]; day 14, rSIFN-co vs IFN-α): 25.6
7-level scale on day 28, 2: Not hospitalized, but unable to return to normal activities, (%) [2, 6]: (95.6) %
7-level scale on day 28, 3: Hospitalized, no need for supplemental oxygen, (%) [2, 6]: (2.2) %
7-level scale on day 28, 4: Hospitalized, requiring supplemental oxygen, (%) [2, 6]: (2.2) %
clinical improvement rate day 28, differences (rate difference) ([2]; day 28, rSIFN-co vs IFN-α): 16.4
Time for clinical improvement (days), median ([2]; added to baseline treatment): 11.5 days
Time for radiographic improvement (days), median [2]: 8.0 days
Time for Viral nucleic acid to turn negative (days), median [2]: 7.0 days
Deterioration rate, differences (rate difference) ([2]; rSIFN-co vs IFN-α): −2.1
Time for Viral nucleic acid to turn negative, differences (hazard ratio) ([2]; rSIFN-co vs IFN-α, Cox model): 1.74
Time for clinical improvement, differences (hazard ratio) ([2]; rSIFN-co vs IFN-α, Cox model): 1.76
Time for radiographic improvement, differences (hazard ratio) ([2]; rSIFN-co vs IFN-α, Cox model): 2.19
serious adverse reaction (cases) [2]: no serious adverse reaction
TI (CC50/EC50) (SARS-CoV-2 virus [3]; MOI: 0.005 (50 PFU)): 5.35×10^7
EC50 Experiment 1 (SARS-CoV-2 virus [3]; MOI: 0.005 (50 PFU)): 15.31 pg/mL
EC50 Experiment 2 (SARS-CoV-2 virus [3]; MOI: 0.005 (50 PFU)): 14.01 pg/mL
EC50 Experiment 3 (SARS-CoV-2 virus [3]; MOI: 0.005 (50 PFU)): 10.58 pg/mL
EC50 means (SARS-CoV-2 virus [3]; MOI: 0.005 (50 PFU)): 13.30 pg/mL
TI (CC50/EC50) (SARS-CoV-2 virus [3]; MOI: 0.005 (50 PFU), listed as Recombinant super-compound interferon (rSIFN-co)): 5.35 × 10^7
TI (CC50/EC50) (SARS-CoV-2 virus [3]; MOI: 0.05 (500 PFU)): 5.77×10^6
EC50 Experiment 1 (SARS-CoV-2 virus [3]; MOI: 0.05 (500 PFU)): 141.80 pg/mL
EC50 Experiment 2 (SARS-CoV-2 virus [3]; MOI: 0.05 (500 PFU)): 125.70 pg/mL
EC50 Experiment 3 (SARS-CoV-2 virus [3]; MOI: 0.05 (500 PFU)): 102.40 pg/mL
EC50 means (SARS-CoV-2 virus [3]; MOI: 0.05 (500 PFU)): 123.30 pg/mL
TI (CC50/EC50) (SARS-CoV-2 virus [3]; MOI: 0.05 (500 PFU), listed as Recombinant super-compound interferon (rSIFN-co)): 5.77 × 10^6
TI (CC50/EC50) (SARS-CoV-2 virus [3]; MOI: 0.5 (5000 PFU)): 4.71×10^6
EC50 Experiment 1 (SARS-CoV-2 virus [3]; MOI: 0.5 (5000 PFU)): 188.60 pg/mL
EC50 Experiment 2 (SARS-CoV-2 virus [3]; MOI: 0.5 (5000 PFU)): 139.70 pg/mL
EC50 Experiment 3 (SARS-CoV-2 virus [3]; MOI: 0.5 (5000 PFU)): 125.30 pg/mL
EC50 means (SARS-CoV-2 virus [3]; MOI: 0.5 (5000 PFU)): 151.20 pg/mL
TI (CC50/EC50) (SARS-CoV-2 virus [3]; MOI: 0.5 (5000 PFU), listed as Recombinant super-compound interferon (rSIFN-co)): 4.71 × 10^6
inhibition of SARS-CoV-2 replication in Vero-E6 cell model (SARS-CoV-2 virus [3]; result in words): dose-dependent manner
CC50 Experiment 1 (Vero-E6 cells): 651 µg/mL
CC50 Experiment 2 (Vero-E6 cells): 806 µg/mL
CC50 Experiment 3 (Vero-E6 cells): 680 µg/mL
CC50 means (Vero-E6 cells; mean of 3 experiments): 712 µg/mL
